T1: FLAG-tagged mouse BAFF 3-mer, E247K (mouse, UniProt Q9WU72 127-309, E247K)
T1 construct: mouse BAFF (Tnfsf13b), soluble form; also called FLAG-mBAFF E247K; source: 293 T cells, transient transfection, supernatant, size fractionated by gel filtration (3-mer fractions 13 + 14)
T1 sequence (looked up): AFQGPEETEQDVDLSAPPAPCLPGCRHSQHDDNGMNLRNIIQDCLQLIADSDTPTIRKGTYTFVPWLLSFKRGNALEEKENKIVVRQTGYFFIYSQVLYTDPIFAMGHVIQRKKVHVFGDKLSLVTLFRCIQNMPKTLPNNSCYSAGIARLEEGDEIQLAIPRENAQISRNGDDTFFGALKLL

T2: FLAG-tagged mouse BAFF 3-mer, H242A (mouse, UniProt Q9WU72 127-309, H242A)
T2 construct: mouse BAFF (Tnfsf13b), soluble form; also called FLAG-mBAFF H242A; source: 293 T cells, transient transfection, supernatant, size fractionated by gel filtration (3-mer fractions 13 + 14)
T2 sequence (looked up): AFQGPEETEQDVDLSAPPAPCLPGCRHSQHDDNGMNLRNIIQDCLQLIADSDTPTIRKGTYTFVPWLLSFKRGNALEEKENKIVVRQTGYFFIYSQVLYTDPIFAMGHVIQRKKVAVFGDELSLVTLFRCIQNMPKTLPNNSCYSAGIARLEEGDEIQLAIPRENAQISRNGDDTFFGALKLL


What was measured:
[1] = biological target: His-tagged human BAFF (60-mer) (human) (UniProt Q9Y275); assay: SEC; purified His-tagged BAFF alone on Superdex 200 Increase, against molecular weight standards
[2] = biological target: naturally cleaved, untagged human BAFF H218A (human); assay: SEC; concentrated 293 T supernatants of naturally cleaved BAFF fractionated on Superdex 200 Increase; fractions blotted with anti-BAFF antibodies; oligomer seen in the fractions
[3] = biological target: naturally cleaved, untagged human BAFF E223K (human); assay: as above
[4] = biological target: T1, FLAG-tagged mouse BAFF 3-mer, E247K; assay: ELISA; direct binding: BAFFR-Fc, BCMA-Fc or TACI-Fc (human or mouse) adsorbed at 1 µg/ml; FLAG-tagged BAFF 3-mers of the corresponding species 1 h at 37 °C in PBS, 0.4% milk, 0.05% Tween-20; biotinylated anti-FLAG detection; conditions: both partners purified
[5] = biological target: T3, FLAG-tagged mouse BAFF 3-mer, wild type (mouse, UniProt Q9WU72 127-309); assay: as above; conditions: both partners purified
T3 construct: mouse BAFF (Tnfsf13b), soluble form; also called FLAG-mBAFF WT; mBAFF; source: 293 T cells, transient transfection, supernatant, size fractionated by gel filtration (3-mer fractions 13 + 14)

[6] = biological target: T2, FLAG-tagged mouse BAFF 3-mer, H242A; assay: as above; conditions: both partners purified
Fc-human BAFF, wild type = biological target: T4, Fc-human BAFF, wild type (human, UniProt Q9Y275); assay: ELISA; Fc-hBAFF (WT or H218A) coated at 1 µg/ml; soluble Fc-BAFF (WT or H218A) titrated, then biotinylated Fab of belimumab (50 µl of 100 ng/ml); streptavidin-peroxidase detection; relative affinity; conditions: both partners purified
T4 construct: human BAFF (TNFSF13B); called an intrinsically cross-linked BAFF; also called Fc-hBAFF WT; Fc-BAFF

[7] = biological target: T5, FLAG-tagged human BAFF 3-mer, H218A (human, UniProt Q9Y275 134-285, H218A); assay: ELISA; direct binding: BAFFR-Fc, BCMA-Fc or TACI-Fc (human or mouse) adsorbed at 1 µg/ml; FLAG-tagged BAFF 3-mers of the corresponding species 1 h at 37 °C in PBS, 0.4% milk, 0.05% Tween-20; biotinylated anti-FLAG detection; conditions: both partners purified
T5 construct: human BAFF (TNFSF13B), soluble form; also called FLAG-hBAFF H218A; source: 293 T cells, transient transfection, supernatant, size fractionated by gel filtration (3-mer fractions 15 + 16)

[8] = biological target: T6, FLAG-tagged human BAFF 3-mer, E223K (human, UniProt Q9Y275 134-285, E223K); assay: as above; conditions: both partners purified
T6 construct: human BAFF (TNFSF13B), soluble form; also called FLAG-hBAFF E223K; source: 293 T cells, transient transfection, supernatant, size fractionated by gel filtration (3-mer fractions 15 + 16)

Molecule | binding result [4] | binding result [5] | binding result [6] | other results
His-tagged human BAFF (60-mer) (from UniProt Q9Y275 134-285) (ligand) |  |  |  | stoichiometry N [1]: 60
naturally cleaved, untagged human BAFF H218A (ligand) |  |  |  | stoichiometry N [2]: 3
naturally cleaved, untagged human BAFF E223K (ligand) |  |  |  | stoichiometry N [3]: 3
MAQQCFHSEYFDSLLHACKPCHLRCSNPPATCQPYCDPSVTSSVKGTYT (Fc fusion, UniProt O88472 1-49, looked up, mouse BCMA) [mouse BCMA-Fc] | binds | binds | binds | 
Fab fragment of belimumab (Fab, V domains shown, heavy-chain part of the Fab; as the light chain of m24; also called belimumab Fab; source: papain digestion of belimumab, flowthrough of Protein A, size-fractionated (Superdex 200 Increase)) VH: QVQLQQSGAEVKKPGSSVRVSCKASGGTFNNNAINWVRQAPGQGLEWMGGIIPMFGTAKYSQNFQGRVAITADESTGTASMELSSLRSEDTAVYYCARSRDLLLFPHHALSPWGRGTMVTVSS VL: SSELTQDPAVSVALGQTVRVTCQGDSLRSYYASWYQQKPGQAPVLVIYGKNNRPSGIPDRFSGSSSGNTASLTITGAQAEDEADYYCSSRDSSGNHWVFGGGTELTVL |  |  |  | binding result (Fc-human BAFF, wild type): binds
human BCMA-Fc (Fc fusion, UniProt Q02223 1-54, looked up, human BCMA (TNFRSF17); also called TNFRSF17) MLQMAGQCSQNEYFDSLLHACIPCQLRCSSNTPPLTCQRYCNASVTNSVKGTNA |  |  |  | binding result [7]: binds; binding result [8]: binds

The next lines start with results.

binding result [4] | binding result [5] | binding result [6] | Molecule | other results
binds | binds | binds | mouse BAFFR-Fc (Fc fusion, UniProt Q9D8D0 1-71, looked up, mouse BAFF receptor (BAFFR); also called mBAFFR-Fc) MGARRLRVRSQRSRDSSVPTQCNQTECFDPLVRNCVSCELFHTPDTGHTSSLEPGTALQPQEGSALRPDVA | 
binds | binds | binds | mouse TACI-Fc (Fc fusion, UniProt Q9ET35 1-128, looked up, mouse TACI) MAMAFCPKDQYWDSSRKSCVSCALTCSQRSQRTCTDFCKFINCRKEQGRYYDHLLGACVSCDSTCTQHPQQCAHFCEKRPRSQANLQPELGRPQAGEVEVRSDNSGRHQGSEHGPGLRLSSDQLTLYC | 

— article PMC5865128 (Nature Communications, 2018)
